This note sets out measurements from PMC4265764 (2014).

The term koff denotes a measure of how fast the partners let go of each other. Read a high koff as a short-lived complex. As a reminder, the Kd is the constant that tells how readily two partners part at equilibrium. Higher therefore signals weaker binding.

Test [1] deals with T1, Green Fluorescent Protein (GFP) (UniProt P42212 1-238 = GFP, biotin on the avi-tag (in-vivo biotinylation)). Briefly: SPR.
For test [2], the target named is superfolder GFP (sfGFP) (UniProt P42212 = GFP, biotin (in-vivo biotinylated, in the ELISA)). Briefly: FP.
Test [3] deals with T1, Green Fluorescent Protein (GFP). Briefly: FP.
The target is the same in test [4]. Briefly: SPR. The source holds these as a separate data set. On the technique in general: SPR reads the build-up and loss of mass on a sensor chip optically.
Test [5] has the same target. Put plainly: FP; PBS with 0.03% BSA.
Test [6] shares this target. Put plainly: FP; PBS with 0.005% Tween-20.

B1: DARPin 3G86.32 (designed binder)
chain: MRGSHHHHHHGSDLGKKLLEAARAGQDDEVRILMANGADVNALDRFGLTPLHLAAQRGHLEIVEVLLKCGADVNAADLWGQTPLHLAATAGHLEIVEVLLKYGADVNALDLIGKTPLHLTAIDGHLEIVEVLLKHGADVNAQDKFGKTAFDISIDNGNEDLAEILQKLN
For the molecule B1, the off-rate (koff) in test [1] stood at 0.00022 s⁻¹. Further, the values for the dissociation constant (Kd) in test [2] and in test [3] were 5.3 nM and < 5 nM, respectively.

B2: DARPin 3G86.1 (designed binder)
chain: MRGSHHHHHHGSDLGKKLLEAARAGQDDEVRILMANGADVNALDRFGLTPLHLAAQRGHLEIVEVLLKCGADVNAADLWGQTPLHLAATAGHLEIVEVLLKNGADVNARDNIGHTPLHLAAWAGHLEIVEVLLKHGADVNAQDKFGKTAFDISIDNGNEDLAEILQKLN
Take B2: the off-rate constant (koff) in test [1] worked out at 0.000369 s⁻¹. Moreover, the values for the Kd in test [4], in test [2] and in test [3] were 0.32 nM, 29 nM and < 5 nM, respectively.

B3: DARPin 3G61 (designed binder)
chain: MRGSHHHHHHGSDLGKKLLEAARAGQDDEVRILMANGADVNALDEVGWTPLHLAAWGHLEIVEVLLKNGADVNAADIDGYTPLHLAAFSGHLEIVEVLLKYGADVNADDQAGFTPLHLAAIFGHLEIVEVLLKNGADVNAQDKFGKTAFDISIDNGNEDLAEILQKLN
With B3, the Kd in test [5] is 76 nM; in test [4] it was 1.1 nM; in test [2] it was 96 nM; in test [6], < 5 nM. Besides, the koff in test [1] stood at 0.000797 s⁻¹.

B4: DARPin 3G124 (designed binder)
chain: DLGKKLLEAARAGQDDEVRILMANGADVNAADDVGVTPLHLAAQRGHLEIVEVLLKYGADVNAADLWGQTPLHLAATAGHLEIVEVLLKNGADVNARDNIGHTPLHLAAWAGHLEIVEVLLKYGADVNAQDKFGKTAFDISIDNGNEDLAEILQ
B4: in test [1], the off-rate constant (koff) was determined as 0.000228 s⁻¹. Besides, the Kd in test [4] is 0.36 nM; in test [2], 22 nM; in test [3], < 5 nM.
